Measurements: article PMC5724754 (Cell reports, 2015)

Molecular target: CSN3 (human (endogenous in HEK293, HEK293T …, UniProt Q9UNS2 1-423))
Assay: co-IP

CSN3 (human, sequence (Q9UNS2 whole entry): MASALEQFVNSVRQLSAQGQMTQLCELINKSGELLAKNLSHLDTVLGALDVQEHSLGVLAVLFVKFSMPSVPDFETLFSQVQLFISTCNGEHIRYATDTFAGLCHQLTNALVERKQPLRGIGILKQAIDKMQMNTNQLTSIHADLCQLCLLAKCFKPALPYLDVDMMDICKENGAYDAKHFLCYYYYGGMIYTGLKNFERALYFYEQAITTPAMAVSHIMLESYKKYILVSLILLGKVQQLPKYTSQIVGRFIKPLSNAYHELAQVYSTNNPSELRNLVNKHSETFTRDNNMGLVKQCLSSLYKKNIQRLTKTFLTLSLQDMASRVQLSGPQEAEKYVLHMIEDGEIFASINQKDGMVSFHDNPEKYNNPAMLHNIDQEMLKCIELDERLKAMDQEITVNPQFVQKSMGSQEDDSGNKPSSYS

binding result: binds
B1: CSNAP (CSN Acidic Protein) (natural protein)
chain: MKPAVDEMFPEGAGPYVDLDEAGGSTGLLMDLAANEKAVHADFFNDFEDLFDDDDIQ
